T1: FcγRIIa-R131 (human, UniProt P12318 34-218, limits assumed)
T1 construct: Construct not described
T1 sequence (looked up): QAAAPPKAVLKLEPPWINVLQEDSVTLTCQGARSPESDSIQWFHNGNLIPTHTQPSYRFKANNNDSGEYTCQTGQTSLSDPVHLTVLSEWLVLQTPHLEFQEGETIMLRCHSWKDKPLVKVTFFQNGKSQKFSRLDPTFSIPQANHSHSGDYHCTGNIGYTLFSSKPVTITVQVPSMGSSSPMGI

T2: FcγRIIb (human, UniProt P31994 43-217, limits assumed)
T2 construct: Construct not described; also called hCD32b/FcγRIIb
T2 sequence (looked up): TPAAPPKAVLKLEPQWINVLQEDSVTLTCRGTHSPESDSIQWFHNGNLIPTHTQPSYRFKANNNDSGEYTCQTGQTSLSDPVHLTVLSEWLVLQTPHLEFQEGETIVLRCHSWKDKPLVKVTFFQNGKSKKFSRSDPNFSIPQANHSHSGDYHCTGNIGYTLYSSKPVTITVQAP


Legend:
[1] = target: T3, recombinant human CD40 monomer (human, UniProt P25942 21-193); experiment: BLI (Octet RED); antibody supernatant captured on protein A sensors, huCD40-monomer in solution
T3 construct: also called huCD40-monomer; soluble human CD40
T3 sequence (P25942 21-193 limits assumed): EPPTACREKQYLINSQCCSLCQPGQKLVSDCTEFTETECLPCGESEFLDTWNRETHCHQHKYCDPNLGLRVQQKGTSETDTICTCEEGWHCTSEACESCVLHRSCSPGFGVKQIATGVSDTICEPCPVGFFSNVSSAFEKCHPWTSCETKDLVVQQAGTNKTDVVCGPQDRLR
Description: The closest matching human germline region sequence was selected for each mouse variable domain, and these human framework regions were used to replace murine frameworks in the “CDR graft” versions of the antibodies. Additional amino acid substitutions, such as framework back-mutations, were then made as necessary to restore the binding affinity of the humanized antibody. Further amino acid substitutions were made to eliminate sequence liabilities. The sequence relationships between the various forms of the antibodies of the present invention are provided at Table 6. The binding of various agonistic anti-huCD40 antibodies to soluble human CD40 was determined by Biolayer Interferometry (BLI) analysis using a Fortebio Octet RED (Rapid system—Extended Detection) label-free interaction analysis instrument. All studies were performed in 10 mM NaₓPO₄, 130 mM NaCl, 0.05% Surfactant P20 (pH 7.1) at 25° C. Briefly, anti-huCD40 antibody supernatants (diluted to 10 μg/ml or captured undiluted if supernatant concentration was less than 10 μg/ml) were captured on protein A coated biosensors (Pall Fortebio #18-5010) using a loading time of 90 s and shake speed of 1000 rpm. Supernatants were first screened for binding to 1 μM recombinant human CD40 monomer (huCD40-monomer) using 180 s association and dissociation times, at 1000 rpm, with two 15 s conditioning steps using 10 mM glycine pH 1.5 in between binding cycles.

FcγRIIa-R131 = target: T1, FcγRIIa-R131; experiment: BLI (ForteBio Octet), %Rmax at 10 µM FcγRIIa-R131 (CD32a-R131 on the sheet)
Method: (§1) See Example 8. Antibody names including “-sup” represent supernatants from antibody producing cells, whereas others are purified antibodies. Data are presented as percentages of a maximum receptor binding value for each combination of antibody and receptor, as measured in a ForteBio Octet system. See, e.g., Example 3. Each cluster of three bars represents, from left to right, binding to hCD32a/FcγRIIa-H131 (10 μM) (hatched bars), […] (10 μM) (black bars), and hCD32b/FcγRIIb (1 μM) (white bars).
(§2) Supernatants were obtained from cells expressing these antibodies and assayed for binding to hCD32/FcγRII. Selected purified antibodies without mutations at position 270 were used as controls.

FcγRIIb = target: T2, FcγRIIb; experiment: BLI (ForteBio Octet), %Rmax at 1 µM hCD32b/FcγRIIb
Method: as §1, §2

Kd [1] | binding result (FcγRIIa-R131) | binding result (FcγRIIb) | Binder | other results
31 nM |  |  | 8E8-62 (antibody, human IgG1, kappa, V domains shown, Humanized; IgG1f) VH: QVQFVQSGAEVKKPGSSVKVSCKASGYTFTSYWMQWVRQAPGQGLEWMGTIYPGDGDSRYNQKFKGKALLTADKSTSTAYMELSSLRSEDTAVYYCARFSLYEGYPYYFDYWGQGTTVTVSS VL: DIVMTQSPLSLPVTPGEPASISCRSSQSLVHRNGNTYLHWYLQKPGQSPQLLIYRVSNRFSGVPDRFSGSGSGTDFTLKISRVEAEDVGVYYCSQSTHFPYTFGGGTKVEIKR | 
 |  |  | 8E8-70 (antibody, human IgG1, kappa, V domains shown, Humanized; IgG1f) VH: QVQFVQSGAEVKKPGSSVKVSCKASGYTFTSYWMQWVRQAPGQGLEWMGTIYPGDSDSRYNQKFKGKALLTADKSTSTAYMELSSLRSEDTAVYYCARFSLYEGYPYYFDYWGQGTTVTVSS VL: DIVMTQSPLSLPVTPGEPASISCRSSQSLVHRNGNTYLHWYLQKPGQSPQLLIYRVSNRFSGVPDRFSGSGSGTDFTLKISRVEAEDVGVYYCSQSTHFPYTFGGGTKVEIKR | binding result [1]: binds
82 nM |  |  | 8E8-56 (antibody, human IgG1, kappa, V domains shown, Humanized; IgG1f) VH: QVQFVQSGAEVKKPGSSVKVSCKASGYTFTSYWMQWVRQAPGQGLEWMGTIYPGDGDSRYNQKFKGKALLTADKSTSTAYMELSSLRSEDTAVYYCARFSLYDGYPYYFDYWGQGTTVTVSS VL: DIVMTQSPLSLPVTPGEPASISCRSSQSLVHRNGNTYLHWYLQKPGQSPQLLIYRVSNRFSGVPDRFSGSGSGTDFTLKISRVEAEDVGVYYCSQSTHFPYTFGGGTKVEIKR | 
 |  |  | 8E8-71 (antibody, human IgG1, kappa, V domains shown, Humanized; IgG1f) VH: QVQFVQSGAEVKKPGSSVKVSCKASGYTFTSYWMQWVRQAPGQGLEWMGTIYPGDSDSRYNQKFKGKALLTADKSTSTAYMELSSLRSEDTAVYYCARFSLYEGYPYYFDYWGQGTTVTVSS VL: DIVMTQSPLSLPVTPGEPASISCRSSQSLVHRNANTYLHWYLQKPGQSPQLLIYRVSNRFSGVPDRFSGSGSGTDFTLKISRVEAEDVGVYYCSQSTHFPYTFGGGTKVEIKR | binding result [1]: binds
82 nM |  |  | 8E8-66 (antibody, human IgG1, kappa, V domains shown) VH: QVQFVQSGAEVKKPGSSVKVSCKASGYTFTSYWMQWVRQAPGQGLEWMGTIYPGDGDSRYNQKFKGKALLTADKSTSTAYMELSSLRSEDTAVYYCARFSLYDGYPYYFDYWGQGTTVTVSS VL: DIVMTQSPLSLPVTPGEPASISCRSSQSLVHRNANTYLHWYLQKPGQSPQLLIYRVSNRFSGVPDRFSGSGSGTDFTLKISRVEAEDVGVYYCSQSTHFPYTFGGGTKVEIKR | 
28 nM |  |  | 8E8-67 (antibody, human IgG1, kappa, V domains shown, Humanized; IgG1f) VH: QVQFVQSGAEVKKPGSSVKVSCKASGYTFTSYWMQWVRQAPGQGLEWMGTIYPGDGDSRYNQKFKGKALLTADKSTSTAYMELSSLRSEDTAVYYCARFSLYEGYPYYFDYWGQGTTVTVSS VL: DIVMTQSPLSLPVTPGEPASISCRSSQSLVHRNANTYLHWYLQKPGQSPQLLIYRVSNRFSGVPDRFSGSGSGTDFTLKISRVEAEDVGVYYCSQSTHFPYTFGGGTKVEIKR | 
85 nM |  |  | 8E8 (parental) (antibody, V domains shown, Mouse variable domains; also called 1802.3583.8E8.C10.G2; mAb 8E8) VH: QVQFQQSGAELARPGASVKLSCKASGYTFTSYWMQWVKQRPGQGLEWIGTIYPGDGDSRYNQKFKGKALLTADKSSSIAYMQLNSLASEDSAVYFCARFSLYDGYPYYFDYWGQGTTLTVSS VL: DVVMTQTPLSLPVSLGDQASISCRSSQSLVHRNGNTYLHWYLQKPGQSPKLLIYRVSNRFSGVPDRFSGSGSGTDFTLKISRVEAEDLGIYFCSQSTHFPYTFGGGTKLEIK | 
 | binds | binds | 12D6-24 V4 D270E (antibody, human IgG1, kappa) heavy: QVQLVQSGAEVKKPGASVKVSCKASGYTFTGYNMNWVRQAPGQGLEWMGNIDPYYGNTNYNQKFKGRVTMTTDTSTSTAYMELRSLRSDDTAVYYCARLGLQLYALDYWGQGTTVTVSSASTKGPSVFPLAPSSKSTSGGTAALGCLVKDYFPEPVTVSWNSGALTSGVHTFPAVLQSSGLYSLSSVVTVPSSSLGTQTYICNVNHKPSNTKVDKRVEPKSCDKTHTCPPCPAPELLGGDSVFLFPPKPKDTLMISRTPEVTCVVVDVSHEEGEVKFNWYVDGVEVHNAKTKPREEQYNSTYRVVSVLTVLHQDWLNGKEYKCKVSNKALPAPIEKTISKAKGQPREPQVYTLPPSREEMTKNQVSLTCLVKGFYPSDIAVEWESNGQPENNYKTTPPVLDSDGSFFLYSKLTVDKSRWQQGNVFSCSVMHEALHNHYTQKSLSLSPG light: DIVMTQTPLSLPVTPGEPASISCRSSQSLVHSNANTYLHWYLQKPGQSPQLLIYKLTNRFFGVPDRFSGSGSGTDFTLKISRVEAEDVGVYYCSQSIHVPWTFGGGTKVEIKRTVAAPSVFIFPPSDEQLKSGTASVVCLLNNFYPREAKVQWKVDNALQSGNSQESVTEQDSKDSTYSLSSTLTLSKADYEKHKVYACEVTHQGLSSPVTKSFNRGEC | 
 | binds | binds | 12D6-24-V9-DT-sup (antibody, Tested as supernatant of antibody-producing cells; also called 12D6-24 V9 D270T; copies: 2 + 2) heavy: QVQLVQSGAEVKKPGASVKVSCKASGYTFTGYNMNWVRQAPGQGLEWMGNIDPYYGNTNYNQKFKGRVTMTTDTSTSTAYMELRSLRSDDTAVYYCARLGLQLYALDYWGQGTTVTVSSASTKGPSVFPLAPSSKSTSGGTAALGCLVKDYFPEPVTVSWNSGALTSGVHTFPAVLQSSGLYSLSSVVTVPSSSLGTQTYICNVNHKPSNTKVDKRVEPKSCDKTHTCPPCPAPELLGDDSVFLFPPKPKDTLMISRTPEVTCVVVDVSHETGEVKFNWYVDGVEVHNAKTKPREEQYNSTYRVVSVLTVLHQDWLNGKEYKCKVSNKALPRPIEKTISKAKGQPREPQVYTLPPSREEMTKNQVSLTCLVKGFYPSDIAVEWESNGQPENNYKTTPPVLDSDGSFFLYSKLTVDKSRWQQGNVFSCSVMHEALHNHYTQKSLSLSPG light: DIVMTQTPLSLPVTPGEPASISCRSSQSLVHSNANTYLHWYLQKPGQSPQLLIYKLTNRFFGVPDRFSGSGSGTDFTLKISRVEAEDVGVYYCSQSIHVPWTFGGGTKVEIKRTVAAPSVFIFPPSDEQLKSGTASVVCLLNNFYPREAKVQWKVDNALQSGNSQESVTEQDSKDSTYSLSSTLTLSKADYEKHKVYACEVTHQGLSSPVTKSFNRGEC | 
 | binds | binds | 5F11-45 V4 D270E (antibody, human IgG1, kappa, also called 5F11-45 D270E V4) heavy: QVQLVQSGAEVKKPGSSVKVSCKASGYTFTDLSMHWVRQAPGQGLEWMGYITPSSGYTAYNQKFKGKTTLTADKSTSTAYMELSSLRSEDTAVYYCARLILQRGAYWGQGTLVTVSSASTKGPSVFPLAPSSKSTSGGTAALGCLVKDYFPEPVTVSWNSGALTSGVHTFPAVLQSSGLYSLSSVVTVPSSSLGTQTYICNVNHKPSNTKVDKRVEPKSCDKTHTCPPCPAPELLGGDSVFLFPPKPKDTLMISRTPEVTCVVVDVSHEEGEVKFNWYVDGVEVHNAKTKPREEQYNSTYRVVSVLTVLHQDWLNGKEYKCKVSNKALPAPIEKTISKAKGQPREPQVYTLPPSREEMTKNQVSLTCLVKGFYPSDIAVEWESNGQPENNYKTTPPVLDSDGSFFLYSKLTVDKSRWQQGNVFSCSVMHEALHNHYTQKSLSLSPG light: DIVLTQSPDSLAVSLGERATINCRASKNVDSYGNSFMHWYQQKPGQPPKLLIYRASNLESGVPDRFSGSGSGTDFTLTISSLQAEDVAVYYCQQSNEDPLTFGQGTKLEIKRTVAAPSVFIFPPSDEQLKSGTASVVCLLNNFYPREAKVQWKVDNALQSGNSQESVTEQDSKDSTYSLSSTLTLSKADYEKHKVYACEVTHQGLSSPVTKSFNRGEC | 
 | binds | binds | 5F11-45-V9-DT-sup (antibody, human IgG1, kappa, Tested as supernatant of antibody-producing cells; also called 5F11-45 V9 D270T) heavy chain: QVQLVQSGAEVKKPGSSVKVSCKASGYTFTDLSMHWVRQAPGQGLEWMGYITPSSGYTAYNQKFKGKTTLTADKSTSTAYMELSSLRSEDTAVYYCARLILQRGAYWGQGTLVTVSSASTKGPSVFPLAPSSKSTSGGTAALGCLVKDYFPEPVTVSWNSGALTSGVHTFPAVLQSSGLYSLSSVVTVPSSSLGTQTYICNVNHKPSNTKVDKRVEPKSCDKTHTCPPCPAPELLGDDSVFLFPPKPKDTLMISRTPEVTCVVVDVSHETGEVKFNWYVDGVEVHNAKTKPREEQYNSTYRVVSVLTVLHQDWLNGKEYKCKVSNKALPRPIEKTISKAKGQPREPQVYTLPPSREEMTKNQVSLTCLVKGFYPSDIAVEWESNGQPENNYKTTPPVLDSDGSFFLYSKLTVDKSRWQQGNVFSCSVMHEALHNHYTQKSLSLSPG light chain: DIVLTQSPDSLAVSLGERATINCRASKNVDSYGNSFMHWYQQKPGQPPKLLIYRASNLESGVPDRFSGSGSGTDFTLTISSLQAEDVAVYYCQQSNEDPLTFGQGTKLEIKRTVAAPSVFIFPPSDEQLKSGTASVVCLLNNFYPREAKVQWKVDNALQSGNSQESVTEQDSKDSTYSLSSTLTLSKADYEKHKVYACEVTHQGLSSPVTKSFNRGEC | 

Source: patent publication US20180142030A1 (Bristol-Myers Squibb, published 2018)
